Patent US20230301998A1 (SANFORD BURNHAM PREBYS MEDICAL DISCOVERY INSTITUTE, published 2023)

Legend:
Assay in all cases: Flag IP of Flag-SHARPIN from WM115 lysate, on-bead tryptic digestion, LC/MS-MS
DYNC1H1 = target: T1, DYNC1H1 (human, UniProt Q14204 2-4646)
T1 construct: endogenous protein co-purified from WM115 lysate
Method: (§1) To identify SHARPIN-interacting proteins, WM115 cells were transfected with Flag-tagged SHARPIN or control empty plasmid. Cell lysates were prepared using 1% Triton X-100 buffer [50 mM Tris-HCl, pH7.4, 1% (v/v) Triton X-100, 150 mM NaCl, 1 mM EDTA, and protease and phosphatase inhibitor cocktails (Thermo Fisher Scientific)]. Lysates were pre-cleared with protein A/G beads (Santa Cruz Biotechnology) for 1 h at 4° C. followed by immunoprecipitation using FLAG-M2-agarose beads (Sigma-Aldrich) overnight at 4° C. Beads were then washed with lysis buffer and TBS containing lx protease inhibitor cocktail before being subjected to on-bead tryptic digestion followed by mass spectrometry. In Vitro Methylation Assay.

MYH9 = target: T2, MYH9 (human, UniProt P35579 2-1960)
T2 construct: endogenous protein co-purified from WM115 lysate
Method: as §1

RNF31 = target: T3, RNF31 (human, UniProt Q96EP0 1-1072)
T3 construct: endogenous protein co-purified from WM115 lysate
T3 sequence (looked up): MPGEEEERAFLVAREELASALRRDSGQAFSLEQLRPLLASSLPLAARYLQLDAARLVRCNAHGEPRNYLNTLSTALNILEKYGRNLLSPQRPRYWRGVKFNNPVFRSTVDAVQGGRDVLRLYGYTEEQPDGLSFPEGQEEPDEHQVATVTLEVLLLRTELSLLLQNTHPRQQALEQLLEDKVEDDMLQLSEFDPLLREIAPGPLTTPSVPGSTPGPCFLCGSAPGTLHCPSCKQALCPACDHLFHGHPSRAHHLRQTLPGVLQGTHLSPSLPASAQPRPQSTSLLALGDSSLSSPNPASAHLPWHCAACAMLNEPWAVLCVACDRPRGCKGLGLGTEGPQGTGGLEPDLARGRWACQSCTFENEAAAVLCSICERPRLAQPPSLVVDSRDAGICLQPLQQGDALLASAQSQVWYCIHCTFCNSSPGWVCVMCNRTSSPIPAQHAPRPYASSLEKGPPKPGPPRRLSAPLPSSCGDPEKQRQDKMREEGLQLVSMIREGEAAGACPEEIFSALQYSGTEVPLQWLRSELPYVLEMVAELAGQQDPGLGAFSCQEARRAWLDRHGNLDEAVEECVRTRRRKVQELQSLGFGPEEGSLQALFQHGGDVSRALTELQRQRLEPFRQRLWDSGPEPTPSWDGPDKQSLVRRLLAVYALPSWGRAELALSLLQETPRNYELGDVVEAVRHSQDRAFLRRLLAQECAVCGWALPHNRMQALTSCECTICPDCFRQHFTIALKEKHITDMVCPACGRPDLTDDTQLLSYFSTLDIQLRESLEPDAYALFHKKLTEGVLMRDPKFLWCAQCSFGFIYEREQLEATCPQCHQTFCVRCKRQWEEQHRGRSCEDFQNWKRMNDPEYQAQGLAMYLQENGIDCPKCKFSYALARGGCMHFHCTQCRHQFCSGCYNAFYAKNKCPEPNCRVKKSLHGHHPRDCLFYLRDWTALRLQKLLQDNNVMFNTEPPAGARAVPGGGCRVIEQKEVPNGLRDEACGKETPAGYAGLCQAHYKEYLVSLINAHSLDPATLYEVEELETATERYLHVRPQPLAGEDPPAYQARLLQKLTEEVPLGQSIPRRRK
Method: as §1

TUBB = target: T4, TUBB (human, UniProt P07437 1-444)
T4 construct: endogenous protein co-purified from WM115 lysate
Method: as §1

PARP1 = target: T5, PARP1 (human, UniProt P09874 2-1014)
T5 construct: endogenous protein co-purified from WM115 lysate
Method: as §1

XRCC6 = target: T6, XRCC6 (human, UniProt P12956 2-609)
T6 construct: endogenous protein co-purified from WM115 lysate
Method: as §1

PRPF31 = target: T7, PRPF31 (human, UniProt Q8WWY3 1-499)
T7 sequence (looked up): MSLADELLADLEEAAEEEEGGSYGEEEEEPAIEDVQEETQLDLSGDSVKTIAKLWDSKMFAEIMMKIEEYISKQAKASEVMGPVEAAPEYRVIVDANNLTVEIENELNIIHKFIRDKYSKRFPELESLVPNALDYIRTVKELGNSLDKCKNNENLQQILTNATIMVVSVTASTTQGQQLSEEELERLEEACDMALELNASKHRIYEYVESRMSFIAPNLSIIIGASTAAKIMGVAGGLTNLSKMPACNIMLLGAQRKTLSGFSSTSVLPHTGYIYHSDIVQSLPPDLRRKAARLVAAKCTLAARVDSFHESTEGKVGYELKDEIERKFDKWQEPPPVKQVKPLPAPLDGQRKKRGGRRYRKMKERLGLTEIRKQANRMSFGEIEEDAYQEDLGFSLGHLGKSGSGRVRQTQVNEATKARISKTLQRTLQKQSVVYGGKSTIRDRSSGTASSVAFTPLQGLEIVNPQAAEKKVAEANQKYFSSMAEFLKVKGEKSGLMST
Method: as §1

PDIA6 = target: T8, PDIA6 (human, UniProt Q15084 20-440)
T8 construct: endogenous protein co-purified from WM115 lysate
T8 sequence (looked up): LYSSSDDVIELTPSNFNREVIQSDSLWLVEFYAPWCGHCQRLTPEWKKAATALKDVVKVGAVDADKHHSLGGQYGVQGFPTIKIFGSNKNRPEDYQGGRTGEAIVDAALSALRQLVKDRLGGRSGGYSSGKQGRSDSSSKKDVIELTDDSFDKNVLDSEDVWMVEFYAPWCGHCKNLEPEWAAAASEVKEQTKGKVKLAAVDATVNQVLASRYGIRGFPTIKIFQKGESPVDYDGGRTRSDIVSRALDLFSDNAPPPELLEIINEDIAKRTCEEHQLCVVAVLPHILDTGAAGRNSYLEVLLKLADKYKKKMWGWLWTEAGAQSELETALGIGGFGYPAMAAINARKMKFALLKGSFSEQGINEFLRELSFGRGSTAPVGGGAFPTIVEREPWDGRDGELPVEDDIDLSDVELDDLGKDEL
Method: as §1

PNKP = target: T9, PNKP (human, UniProt Q96T60 1-521)
T9 construct: endogenous protein co-purified from WM115 lysate
Method: as §1

T2 sequence (P35579 2-1960 limits assumed): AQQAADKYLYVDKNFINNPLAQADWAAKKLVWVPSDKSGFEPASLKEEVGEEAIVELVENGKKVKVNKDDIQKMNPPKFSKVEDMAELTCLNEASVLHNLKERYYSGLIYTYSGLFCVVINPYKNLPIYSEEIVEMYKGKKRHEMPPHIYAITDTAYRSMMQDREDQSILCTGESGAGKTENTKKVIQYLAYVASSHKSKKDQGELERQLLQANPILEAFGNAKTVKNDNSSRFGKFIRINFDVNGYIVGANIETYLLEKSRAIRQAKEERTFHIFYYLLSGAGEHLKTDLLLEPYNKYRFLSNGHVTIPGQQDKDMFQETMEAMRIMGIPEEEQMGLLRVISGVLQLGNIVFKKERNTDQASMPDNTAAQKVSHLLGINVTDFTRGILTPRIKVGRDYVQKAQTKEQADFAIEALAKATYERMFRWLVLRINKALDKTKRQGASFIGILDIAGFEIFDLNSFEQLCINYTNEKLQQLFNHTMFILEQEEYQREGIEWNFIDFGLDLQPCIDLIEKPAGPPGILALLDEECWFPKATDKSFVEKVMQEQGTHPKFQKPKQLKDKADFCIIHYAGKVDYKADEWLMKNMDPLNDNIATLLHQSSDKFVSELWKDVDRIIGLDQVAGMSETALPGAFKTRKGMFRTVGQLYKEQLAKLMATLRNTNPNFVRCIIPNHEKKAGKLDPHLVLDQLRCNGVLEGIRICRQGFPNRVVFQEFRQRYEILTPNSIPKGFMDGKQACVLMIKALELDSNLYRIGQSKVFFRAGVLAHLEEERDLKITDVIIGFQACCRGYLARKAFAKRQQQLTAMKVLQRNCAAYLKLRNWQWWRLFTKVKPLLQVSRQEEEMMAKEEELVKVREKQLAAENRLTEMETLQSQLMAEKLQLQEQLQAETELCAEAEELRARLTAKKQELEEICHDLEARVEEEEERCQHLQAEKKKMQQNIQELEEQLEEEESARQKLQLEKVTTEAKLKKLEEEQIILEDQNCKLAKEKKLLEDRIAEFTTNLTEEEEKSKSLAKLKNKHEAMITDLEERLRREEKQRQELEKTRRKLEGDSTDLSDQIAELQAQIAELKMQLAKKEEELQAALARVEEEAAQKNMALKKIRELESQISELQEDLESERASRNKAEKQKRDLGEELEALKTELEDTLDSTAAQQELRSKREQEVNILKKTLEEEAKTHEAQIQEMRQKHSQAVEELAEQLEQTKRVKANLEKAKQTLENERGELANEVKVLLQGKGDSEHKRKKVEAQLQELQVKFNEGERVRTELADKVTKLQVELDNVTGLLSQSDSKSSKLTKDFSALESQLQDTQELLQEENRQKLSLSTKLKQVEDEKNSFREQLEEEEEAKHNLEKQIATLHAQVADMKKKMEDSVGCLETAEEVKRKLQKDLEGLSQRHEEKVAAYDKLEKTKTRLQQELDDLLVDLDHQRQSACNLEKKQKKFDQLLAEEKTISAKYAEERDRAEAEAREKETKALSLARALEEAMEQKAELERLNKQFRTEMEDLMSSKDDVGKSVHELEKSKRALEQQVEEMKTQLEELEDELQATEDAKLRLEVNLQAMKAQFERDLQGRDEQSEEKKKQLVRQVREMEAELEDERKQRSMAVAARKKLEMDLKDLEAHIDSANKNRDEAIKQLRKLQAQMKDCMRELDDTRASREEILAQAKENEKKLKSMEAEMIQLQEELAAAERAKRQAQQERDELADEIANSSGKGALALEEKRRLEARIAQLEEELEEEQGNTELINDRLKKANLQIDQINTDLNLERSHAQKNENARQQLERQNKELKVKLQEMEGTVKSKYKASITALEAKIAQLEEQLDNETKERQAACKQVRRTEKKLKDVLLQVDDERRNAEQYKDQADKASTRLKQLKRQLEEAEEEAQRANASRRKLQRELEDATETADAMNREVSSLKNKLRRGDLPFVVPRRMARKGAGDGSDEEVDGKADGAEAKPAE
T6 sequence (P12956 2-609 limits assumed): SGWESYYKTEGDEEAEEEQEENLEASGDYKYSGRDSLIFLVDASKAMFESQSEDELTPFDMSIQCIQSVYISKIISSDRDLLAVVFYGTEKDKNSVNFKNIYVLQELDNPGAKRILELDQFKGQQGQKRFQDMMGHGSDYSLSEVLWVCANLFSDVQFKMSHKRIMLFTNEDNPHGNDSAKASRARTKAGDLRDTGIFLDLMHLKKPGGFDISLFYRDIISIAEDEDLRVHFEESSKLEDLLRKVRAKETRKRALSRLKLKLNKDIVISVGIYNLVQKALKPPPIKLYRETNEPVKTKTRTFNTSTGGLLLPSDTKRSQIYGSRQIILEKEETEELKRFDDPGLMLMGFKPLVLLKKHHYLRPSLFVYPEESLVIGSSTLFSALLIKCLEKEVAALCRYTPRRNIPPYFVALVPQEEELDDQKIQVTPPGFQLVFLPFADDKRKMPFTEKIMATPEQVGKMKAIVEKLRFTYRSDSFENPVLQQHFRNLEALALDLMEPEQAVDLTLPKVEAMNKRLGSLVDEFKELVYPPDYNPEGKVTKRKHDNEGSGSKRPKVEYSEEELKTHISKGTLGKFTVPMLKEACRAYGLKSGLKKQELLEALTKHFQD
T4 sequence (P07437 whole entry): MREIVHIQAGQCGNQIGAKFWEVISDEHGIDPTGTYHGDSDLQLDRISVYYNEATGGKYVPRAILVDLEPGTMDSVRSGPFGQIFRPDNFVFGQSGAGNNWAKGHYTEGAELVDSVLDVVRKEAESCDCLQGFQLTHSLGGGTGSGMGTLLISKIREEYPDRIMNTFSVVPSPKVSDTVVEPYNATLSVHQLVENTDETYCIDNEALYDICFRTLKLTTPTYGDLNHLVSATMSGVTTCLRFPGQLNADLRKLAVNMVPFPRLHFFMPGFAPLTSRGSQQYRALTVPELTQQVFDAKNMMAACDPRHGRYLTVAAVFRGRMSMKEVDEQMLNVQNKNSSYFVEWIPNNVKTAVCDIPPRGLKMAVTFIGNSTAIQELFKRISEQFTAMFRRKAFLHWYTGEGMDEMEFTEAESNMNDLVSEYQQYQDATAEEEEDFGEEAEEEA
T5 sequence (P09874 2-1014 limits assumed): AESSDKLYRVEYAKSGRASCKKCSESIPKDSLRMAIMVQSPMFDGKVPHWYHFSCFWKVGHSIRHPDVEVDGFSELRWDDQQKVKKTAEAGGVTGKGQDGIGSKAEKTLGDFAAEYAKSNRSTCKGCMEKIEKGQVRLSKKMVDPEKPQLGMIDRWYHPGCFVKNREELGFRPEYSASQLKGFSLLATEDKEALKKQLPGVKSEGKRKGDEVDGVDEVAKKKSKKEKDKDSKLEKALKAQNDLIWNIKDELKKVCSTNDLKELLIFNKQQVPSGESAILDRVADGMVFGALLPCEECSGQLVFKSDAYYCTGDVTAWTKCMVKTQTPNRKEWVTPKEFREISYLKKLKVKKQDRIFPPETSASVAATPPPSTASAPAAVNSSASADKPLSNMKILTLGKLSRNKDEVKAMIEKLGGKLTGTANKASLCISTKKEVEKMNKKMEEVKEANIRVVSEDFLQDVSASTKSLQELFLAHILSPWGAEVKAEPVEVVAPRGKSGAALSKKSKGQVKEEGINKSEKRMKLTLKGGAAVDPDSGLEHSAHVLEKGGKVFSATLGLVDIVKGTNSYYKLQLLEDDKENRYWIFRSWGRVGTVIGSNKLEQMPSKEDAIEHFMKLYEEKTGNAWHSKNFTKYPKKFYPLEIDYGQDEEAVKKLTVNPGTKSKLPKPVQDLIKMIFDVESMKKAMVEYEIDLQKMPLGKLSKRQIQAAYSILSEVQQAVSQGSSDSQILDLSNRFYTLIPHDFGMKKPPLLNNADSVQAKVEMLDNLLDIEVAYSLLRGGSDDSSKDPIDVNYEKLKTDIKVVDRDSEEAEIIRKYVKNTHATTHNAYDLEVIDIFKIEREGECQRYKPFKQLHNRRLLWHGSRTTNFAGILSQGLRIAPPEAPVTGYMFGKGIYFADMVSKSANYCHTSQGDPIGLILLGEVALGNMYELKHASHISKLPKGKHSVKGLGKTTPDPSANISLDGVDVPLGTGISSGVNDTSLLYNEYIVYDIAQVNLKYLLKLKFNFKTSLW

- binding result (DYNC1H1): binds
- binding result (MYH9): binds
- binding result (RNF31): binds
- binding result (TUBB): binds
- binding result (PARP1): binds
- binding result (XRCC6): binds
- binding result (PRPF31): binds
- binding result (PDIA6): binds
- binding result (PNKP): binds
B1: Flag-tagged SHARPIN (other, human, UniProt Q9H0F6 1-387, looked up)
chain: MAPPAGGAAAAASDLGSAAVLLAVHAAVRPLGAGPDAEAQLRRLQLSADPERPGRFRLELLGAGPGAVNLEWPLESVSYTIRGPTQHELQPPPGGPGTLSLHFLNPQEAQRWAVLVRGATVEGQNGSKSNSPPALGPEACPVSLPSPPEASTLKGPPPEADLPRSPGNLTEREELAGSLARAIAGGDEKGAAQVAAVLAQHRVALSVQLQEACFPPGPIRLQVTLEDAASAASAASSAHVALQVHPHCTVAALQEQVFSELGFPPAVQRWVIGRCLCVPERSLASYGVRQDGDPAFLYLLSAPREAPATGPSPQHPQKMDGELGRLFPPSLGLPPGPQPAASSLPSPLQPSWSCPSCTFINAPDRPGCEMCSTQRPCTWDPLAAAST
notes: also called Flag-SHARPIN; not shown: FLAG tag
